# Molecular target: eukaryotic elongation factor 2 (eEF-2) from yeast (yeast (commercial yeast cake), UniProt P32324 1-842)
# Test: ITC
# eukaryotic elongation factor 2 (eEF-2) from yeast, sequence (P32324 whole entry): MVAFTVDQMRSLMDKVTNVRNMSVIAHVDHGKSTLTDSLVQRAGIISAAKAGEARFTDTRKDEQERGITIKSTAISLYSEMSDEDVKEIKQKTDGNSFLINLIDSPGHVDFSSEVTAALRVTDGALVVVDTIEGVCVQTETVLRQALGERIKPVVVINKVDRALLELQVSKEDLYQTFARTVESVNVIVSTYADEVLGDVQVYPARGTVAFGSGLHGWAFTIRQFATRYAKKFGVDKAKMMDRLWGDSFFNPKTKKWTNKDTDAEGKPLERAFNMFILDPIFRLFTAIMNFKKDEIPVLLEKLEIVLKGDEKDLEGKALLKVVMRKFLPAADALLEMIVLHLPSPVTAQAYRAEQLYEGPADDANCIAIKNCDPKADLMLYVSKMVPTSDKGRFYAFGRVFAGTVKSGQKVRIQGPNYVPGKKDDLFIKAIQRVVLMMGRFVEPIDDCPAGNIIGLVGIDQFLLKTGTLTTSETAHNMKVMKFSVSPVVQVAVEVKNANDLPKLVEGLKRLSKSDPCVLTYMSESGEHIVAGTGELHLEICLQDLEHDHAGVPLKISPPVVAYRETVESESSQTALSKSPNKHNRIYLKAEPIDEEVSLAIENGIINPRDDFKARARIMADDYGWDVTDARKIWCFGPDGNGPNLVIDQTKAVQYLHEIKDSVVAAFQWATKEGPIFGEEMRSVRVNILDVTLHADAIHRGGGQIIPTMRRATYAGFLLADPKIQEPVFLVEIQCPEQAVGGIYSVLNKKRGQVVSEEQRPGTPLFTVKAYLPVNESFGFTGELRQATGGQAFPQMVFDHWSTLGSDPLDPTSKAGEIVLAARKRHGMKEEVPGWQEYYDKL
row,Kd [µM],Binder
1,15.4 to 19,"eEF-2K_(592–725), C-terminal fragment of human eukaryotic elongation factor 2 kinase (residues E592-E725) (domain or fragment, UniProt O00418 592-725, looked up) ENKTKGFDYLLKAAEAGDRQSMILVARAFDSGQNLSPDRCQDWLEALHWYNTALEMTDCDEGGEYDGMQDEPRYMMLAREAEMLFTGGYGLEKDPQRSGDLYTQAAEAAMEAMKGRLANQYYQKAEEAWAQMEE"
2,4.2 to 8.9,"eEF-2K_(562–725), C-terminal fragment of human eukaryotic elongation factor 2 kinase (residues G562-E725) (domain or fragment) SHMGELEAIVGLGLMYSQLPHHILADVSLKETEENKTKGFDYLLKAAEAGDRQSMILVARAFDSGQNLSPDRCQDWLEALHWYNTALEMTDCDEGGEYDGMQDEPRYMMLAREAEMLFTGGYGLEKDPQRSGDLYTQAAEAAMEAMKGRLANQYYQKAEEAWAQMEE"
